Results reported in PMC7367173.

T1: ProQ NTD (FinO domain) (Escherichia coli, UniProt P45577 1-130)
T1 sequence: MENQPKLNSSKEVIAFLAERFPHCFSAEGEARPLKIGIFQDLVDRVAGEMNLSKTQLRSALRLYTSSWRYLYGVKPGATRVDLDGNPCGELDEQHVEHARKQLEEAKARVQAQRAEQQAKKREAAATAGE

T2: ProQ full-length (Escherichia coli, UniProt P45577 1-232)
T2 sequence: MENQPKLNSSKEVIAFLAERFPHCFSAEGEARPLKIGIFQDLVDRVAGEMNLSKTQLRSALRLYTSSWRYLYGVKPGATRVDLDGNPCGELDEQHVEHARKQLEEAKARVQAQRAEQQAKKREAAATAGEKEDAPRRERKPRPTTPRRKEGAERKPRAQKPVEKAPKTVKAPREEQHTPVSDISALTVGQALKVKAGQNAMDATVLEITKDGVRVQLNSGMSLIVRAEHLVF


Experiments:
Hfq = Hfq (Escherichia coli, UniProt P0A6X3 1-102); test: filter binding
ProQ NTD (FinO domain) = target: T1, ProQ NTD (FinO domain); test: EMSA
ProQ full-length = target: T2, ProQ full-length; test: EMSA

Hfq, sequence (P0A6X3 whole entry, the tested form may be a part): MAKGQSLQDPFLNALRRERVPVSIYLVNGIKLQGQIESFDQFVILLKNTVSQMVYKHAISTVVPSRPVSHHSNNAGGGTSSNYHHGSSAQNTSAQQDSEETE

Row | Binder | Kd (Hfq) [nM] | Kd (ProQ NTD (FinO domain)) [nM] | Kd (ProQ full-length) [nM]
1 | infA-3'-AtoU (structured_RNA) RNA: GUCGCUGAUUGUUUUACCGCCUGAUGGGCGAAGAGAAAGAACGAGUUUUUGGUCGGUUUAACCGGCCUUUUUAU | 1.2 ± 0.55 | 32 ± 13 | –
2 | hupA-5'-mut (structured_RNA) RNA: GCGAAAAAAAGUGGCUAUCGGUGCGUGUAUGCAGGAGAGUGCUAUUCUGGCAUUUCCGUCGCACUCGAUGCUUAGCAAGCGAUAAACACAUCGUAAGGAUAACUUACGUUUU | – | 16 ± 4.7 | 14 ± 8
3 | cspE81-3' (structured_RNA) RNA: GGCCCUUCUGCUGCAAACGUAAUCGCUCUGUAAGAUACGUCAGCAAGAAUUCAAAACCCGCUUAAUCAGCGGGUUUUUUUU | 47 ± 11 | 7.6 ± 4.5 | –
4 | cspE81-3'-AtoU (structured_RNA) RNA: GGCCCUUCUGCUGCAAACGUAAUCGCUCUGUAAGAUACGUCAGCAAGAAUUCUUUUCCCGCUUAAUCAGCGGGUUUUUUUU | – | 17 ± 4.6 | –
5 | malM-3'-5U (structured_RNA) RNA: GCUUUAUCAGCAGUGUAAAAGGCAAGGGGUAAUUACGCCCCACAGUGCUGAUUUUGCAACAACUGGUGCGUCUCCUGGCGCACCUUUUU | – | 9.7 ± 1.5 | –
6 | lpp-5'-mut (structured_RNA) RNA: GCUACAUGGAGAUUAACUCAAUCUAGAGGGUAUUAAUAAUGAAAGCUACUAAACUGGUACUGGGCGCGGUAAUCCCGCGCCCUUUU | – | – | 3 ± 1.3
7 | malM-3'-AA (structured_RNA) RNA: GCUUUAUCAGCAGUGUAAAAGGCAAGGGGUAAUUACGCCCCACAGUGCUGAUUUUGCAACAACUGGUAAGUCUCCUGGCAAACCUUUUUUU | – | 6.6 ± 1.4 | –
8 | malM-3' (structured_RNA) RNA: GCUUUAUCAGCAGUGUAAAAGGCAAGGGGUAAUUACGCCCCACAGUGCUGAUUUUGCAACAACUGGUGCGUCUCCUGGCGCACCUUUUUUU | 22 ± 7 | 12 ± 4.8 | 12 ± 5.3
9 | malM-3'-AtoU (structured_RNA) RNA: GCUUUAUCAGCAGUGUAAAAGGCAAGGGGUAAUUACGCCCCACAGUGCUGAUUUUGCUUCUUCUGGUGCGUCUCCUGGCGCACCUUUUUUU | – | 5 ± 1.8 | –
10 | malM-3'-UU (structured_RNA) RNA: GCUUUAUCAGCAGUGUAAAAGGCAAGGGGUAAUUACGCCCCACAGUGCUGAUUUUGCAACAACUGGUUUGUCUCCUGGCUUACCUUUUUUU | – | 8.7 ± 2.1 | –
11 | malM-3'-4U (structured_RNA) RNA: GCUUUAUCAGCAGUGUAAAAGGCAAGGGGUAAUUACGCCCCACAGUGCUGAUUUUGCAACAACUGGUGCGUCUCCUGGCGCACCUUUU | – | 27 ± 11 | –
12 | cspE-3' (structured_RNA) RNA: GUAAGAUACGUCAGCAAGAAUUCAAAACCCGCUUAAUCAGCGGGUUUUUUUU | – | 4.5 ± 1.5 | 13 ± 4.5
13 | cspE-3'-AtoU (structured_RNA) RNA: GUAAGAUACGUCAGCAAGAAUUCUUUUCCCGCUUAAUCAGCGGGUUUUUUUU | 1.7 ± 0.88 | 100 ± 51 | –
14 | gapA-3'-AtoU (structured_RNA) RNA: GGACCUGAUCGCUCACAUCUCCAAAUAAGUUGAGAUGACACUGUGAUCUUUUUUGAGCGACUUCGGUCGCUCUUUUUUUU | – | 18 | –
15 | hupB-3'-RtoU (structured_RNA) RNA: GGUAAACUAAGCGUUGUCCCCAGUGGGGAUGUGACGAAGUUCUUUGGCGCAUCUACUGAUGUGCCUUUUUU | 1.9 ± 0.75 | 29 ± 7.2 | –
16 | malM-3'-6U (structured_RNA) RNA: GCUUUAUCAGCAGUGUAAAAGGCAAGGGGUAAUUACGCCCCACAGUGCUGAUUUUGCAACAACUGGUGCGUCUCCUGGCGCACCUUUUUU | – | 7.8 ± 1.2 | –
17 | malM-3'-bulge (structured_RNA) RNA: GCUUUAUCAGCAGUGUAAAAGGCAAGGGGUAAUUACGCCCCACAGUGCUGAUUUUGCAACAACUGGUGAAACGUCUCCUGGCGCACCUUUUUUU | – | 9 ± 2.5 | –
